Patent publication US20180320179A1, “LANOSTEROL 14-ALPHA DEMETHYLASE (CYP51) NUCLEIC ACID MOLECULES THAT CONTROL PATHOGENS” (Dow AgroSciences LLC, priority 2017, published 2018)

Test system: Zymoseptoria tritici (SEPTTR-184)
Assay: Cyp51 dsRNA tile (fragment) foliar application bioassay (Example 6)
Assay type: in vivo
Conditions: for ED50 (ppm) SEPTTR-184 1DP / ED80 (ppm) SEPTTR-184 1DP / Disease Control (%) SEPTTR-184 1DP: 1 day protectant; for ED50 (ppm) SEPTTR-184 1DP / ED80 (ppm) SEPTTR-184 1DP / ED50 (ppm) SEPTTR-184 3DC / ED80 (ppm) SEPTTR-184 3DC: calculated from disease control; for Disease Control (%) SEPTTR-184 1DP / Disease Control (%) SEPTTR-184 3DC: average of 2 trials; for ED50 (ppm) SEPTTR-184 3DC / ED80 (ppm) SEPTTR-184 3DC / Disease Control (%) SEPTTR-184 3DC: 3 days curative
Procedure: The 200 ppm concentration for each treatment was prepared by adding the calculated volume of the corresponding dsRNA solution in TE buffer. […] A non-target dsRNA control (YFP), a TE/phosphate buffer control, disease pressure control, and clean plant control were included.
These plants were inoculated with an aqueous spore suspension of Zymoseptoria tritici either prior to or after fungicidal treatments. After inoculation the plants were kept in 100% relative humidity to allow spores to germinate and infect the leaves. The plants were then transferred to a greenhouse set at 20° C. until disease developed.

B1: MgCyp51-T2: dsRNA tile of Zymoseptoria tritici Cyp51, 165 bp, location 48-212 (nucleic acid, listed as Zymoseptoria tritici)
chain: CCAGACCAGCCTCTGGAAACTTGTCGGACTTGGATTCCTCGCCTTCAGCACGCTCGCCATCCTCCTCAATGTCCTCTCACAACTTCTCTTCCGTGGCAAGTTGTCCGATCCGCCACTCGTATTCCACTGGGTGCCCTTCATCGGAAGCACCATCACATACGGCAT
ED50 (ppm) SEPTTR-184 1DP: <3.125 ppm | ED80 (ppm) SEPTTR-184 1DP: >200 ppm | Disease Control (%) SEPTTR-184 1DP (rate 3.125 ppm): 53% | Disease Control (%) SEPTTR-184 1DP (rate 12.5 ppm): 67% | Disease Control (%) SEPTTR-184 1DP (rate 50 ppm): 70% | Disease Control (%) SEPTTR-184 1DP (rate 200 ppm): 75% | ED50 (ppm) SEPTTR-184 3DC: <3.125 ppm | ED80 (ppm) SEPTTR-184 3DC: 125 ppm | Disease Control (%) SEPTTR-184 3DC (rate 3.125 ppm): 76% | Disease Control (%) SEPTTR-184 3DC (rate 12.5 ppm): 72% | Disease Control (%) SEPTTR-184 3DC (rate 50 ppm): 76% | Disease Control (%) SEPTTR-184 3DC (rate 200 ppm): 84% | curative activity against SEPTTR (ranking) (curative test): provided the best curative activity against SEPTTR | level of control among the fragments (ranking) (fragments compared with each other): provided the best level of control

B2: MgCyp51-T1: dsRNA tile of Zymoseptoria tritici Cyp51, 232 bp, location 166-397 (nucleic acid, listed as Zymoseptoria tritici)
chain: GTATTCCACTGGGTGCCCTTCATCGGAAGCACCATCACATACGGCATCGACCCATACAAGTTCTTCTTCTCCTGTCGGGAAAAGTATGGAGATGTCTTTACATTCATCCTGCTGGGAAAGAAGACGACGGTGTGCTTGGGCACCAAGGGCAATGATTTTATTTTGAATGGAAAACTGAAGGACGTCAACGCGGAGGAGATATACAGCCCGCTGACCACTCCTGTCTTTGGCA
ED50 (ppm) SEPTTR-184 1DP: <3.125 ppm | ED80 (ppm) SEPTTR-184 1DP: >200 ppm | Disease Control (%) SEPTTR-184 1DP (rate 3.125 ppm): 65% | Disease Control (%) SEPTTR-184 1DP (rate 12.5 ppm): 68% | Disease Control (%) SEPTTR-184 1DP (rate 50 ppm): 70% | Disease Control (%) SEPTTR-184 1DP (rate 200 ppm): 77% | ED50 (ppm) SEPTTR-184 3DC: <3.125 ppm | ED80 (ppm) SEPTTR-184 3DC: >200 ppm | Disease Control (%) SEPTTR-184 3DC (rate 3.125 ppm): 71% | Disease Control (%) SEPTTR-184 3DC (rate 12.5 ppm): 78% | Disease Control (%) SEPTTR-184 3DC (rate 50 ppm): 68% | Disease Control (%) SEPTTR-184 3DC (rate 200 ppm): 70%

B3: MgCyp51-T3: dsRNA tile of Zymoseptoria tritici Cyp51, 230 bp, location 450-679 (nucleic acid, listed as Zymoseptoria tritici)
chain: CGTCAAGTACGGCCTCACAACCTCTGCCCTCCAGTCCTACGTGACCTTGATCGCCGCCGAGACCCGCCAGTTCTTCGACCGCAACAACCCTCATAAGAAGTTCGCATCGACCAGCGGCACGATCGATCTCCCACCAGCCCTCGCCGAACTTACGATCTATACTGCCAGCCGATCATTGCAAGGAAAGGAAGTCCGCGAGGGCTTCGACTCGTCTTTCGCGGACCTCTACC
ED50 (ppm) SEPTTR-184 1DP: <3.125 ppm | ED80 (ppm) SEPTTR-184 1DP: >200 ppm | Disease Control (%) SEPTTR-184 1DP (rate 3.125 ppm): 64% | Disease Control (%) SEPTTR-184 1DP (rate 12.5 ppm): 72% | Disease Control (%) SEPTTR-184 1DP (rate 50 ppm): 69% | Disease Control (%) SEPTTR-184 1DP (rate 200 ppm): 74% | ED50 (ppm) SEPTTR-184 3DC: <3.125 ppm | ED80 (ppm) SEPTTR-184 3DC: >200 ppm | Disease Control (%) SEPTTR-184 3DC (rate 3.125 ppm): 73% | Disease Control (%) SEPTTR-184 3DC (rate 12.5 ppm): 73% | Disease Control (%) SEPTTR-184 3DC (rate 50 ppm): 72% | Disease Control (%) SEPTTR-184 3DC (rate 200 ppm): 76%

B4: MgCyp51-T4: dsRNA tile of Zymoseptoria tritici Cyp51, 178 bp, location 647-824 (nucleic acid, listed as Zymoseptoria tritici)
chain: AGGGCTTCGACTCGTCTTTCGCGGACCTCTACCACTACCTCGATATGGGATTCACACCGATCAACTTTATGCTTCCGTGGGCGCCCCTTCCCCAGAACCGACGCCGCGATTATGCGCAGAAGAAGATGTCCGAGACATACATGTCGATCATTCAGAAGAGACGAGAGTCCAAAACGGG
ED50 (ppm) SEPTTR-184 1DP: <3.125 ppm | ED80 (ppm) SEPTTR-184 1DP: 200 ppm | Disease Control (%) SEPTTR-184 1DP (rate 3.125 ppm): 53% | Disease Control (%) SEPTTR-184 1DP (rate 12.5 ppm): 65% | Disease Control (%) SEPTTR-184 1DP (rate 50 ppm): 61% | Disease Control (%) SEPTTR-184 1DP (rate 200 ppm): 80% | ED50 (ppm) SEPTTR-184 3DC: <3.125 ppm | ED80 (ppm) SEPTTR-184 3DC: >200 ppm | Disease Control (%) SEPTTR-184 3DC (rate 3.125 ppm): 59% | Disease Control (%) SEPTTR-184 3DC (rate 12.5 ppm): 52% | Disease Control (%) SEPTTR-184 3DC (rate 50 ppm): 67% | Disease Control (%) SEPTTR-184 3DC (rate 200 ppm): 75%

B5: MgCyp51-T7: dsRNA tile of Zymoseptoria tritici Cyp51, 111 bp, location 1490-1600 (nucleic acid, listed as Zymoseptoria tritici)
chain: CGACGATGGTTCGCGATTTCAAGTTTTACAATGTGGATGGCAGCGACAACGTGGTGGGTACGGATTACAGCAGTTTGTTCAGCCGGCCGCTGTCGCCGGCAGTAGTAAAGT
modifications: long dsRNA tile, purified, chemistry not given here
ED50 (ppm) SEPTTR-184 1DP: 3.125 ppm | ED80 (ppm) SEPTTR-184 1DP: >200 ppm | Disease Control (%) SEPTTR-184 1DP (rate 3.125 ppm): 50% | Disease Control (%) SEPTTR-184 1DP (rate 12.5 ppm): 64% | Disease Control (%) SEPTTR-184 1DP (rate 50 ppm): 66% | Disease Control (%) SEPTTR-184 1DP (rate 200 ppm): 70% | ED50 (ppm) SEPTTR-184 3DC: 5.331 ppm | ED80 (ppm) SEPTTR-184 3DC: >200 ppm | Disease Control (%) SEPTTR-184 3DC (rate 3.125 ppm): 46% | Disease Control (%) SEPTTR-184 3DC (rate 12.5 ppm): 63% | Disease Control (%) SEPTTR-184 3DC (rate 50 ppm): 66% | Disease Control (%) SEPTTR-184 3DC (rate 200 ppm): 72%

B6: MgCyp51-T9: dsRNA tile of Zymoseptoria tritici Cyp51, 172 bp, location 1-172 (nucleic acid, listed as Zymoseptoria tritici)
chain: ATGGGTCTCCTCCAGGAAGTCCTCGCGCAGTTCGACGCGCAATTCGGCCAGACCAGCCTCTGGAAACTTGTCGGACTTGGATTCCTCGCCTTCAGCACGCTCGCCATCCTCCTCAATGTCCTCTCACAACTTCTCTTCCGTGGCAAGTTGTCCGATCCGCCACTCGTATTCC
modifications: double-stranded RNA
ED50 (ppm) SEPTTR-184 1DP: <3.125 ppm | ED80 (ppm) SEPTTR-184 1DP: >200 ppm | Disease Control (%) SEPTTR-184 1DP (rate 3.125 ppm): 53% | Disease Control (%) SEPTTR-184 1DP (rate 12.5 ppm): 53% | Disease Control (%) SEPTTR-184 1DP (rate 50 ppm): 57% | Disease Control (%) SEPTTR-184 1DP (rate 200 ppm): 76% | ED50 (ppm) SEPTTR-184 3DC: <3.125 ppm | ED80 (ppm) SEPTTR-184 3DC: >200 ppm | Disease Control (%) SEPTTR-184 3DC (rate 3.125 ppm): 52% | Disease Control (%) SEPTTR-184 3DC (rate 12.5 ppm): 46% | Disease Control (%) SEPTTR-184 3DC (rate 50 ppm): 65% | Disease Control (%) SEPTTR-184 3DC (rate 200 ppm): 72%

B7: MgCyp51-T10: dsRNA tile of Zymoseptoria tritici Cyp51, 172 bp, location 345-516 (nucleic acid, listed as Zymoseptoria tritici)
chain: GGACGTCAACGCGGAGGAGATATACAGCCCGCTGACCACTCCTGTCTTTGGCAAGGATGTGGTTTATGATTGTCCCAATTCGAAGCTCATGGAGCAGAAGAAGTTCGTCAAGTACGGCCTCACAACCTCTGCCCTCCAGTCCTACGTGACCTTGATCGCCGCCGAGACCCGC
ED50 (ppm) SEPTTR-184 1DP: <3.125 ppm | ED80 (ppm) SEPTTR-184 1DP: >200 ppm | Disease Control (%) SEPTTR-184 1DP (rate 3.125 ppm): 58% | Disease Control (%) SEPTTR-184 1DP (rate 12.5 ppm): 64% | Disease Control (%) SEPTTR-184 1DP (rate 50 ppm): 73% | Disease Control (%) SEPTTR-184 1DP (rate 200 ppm): 75% | ED50 (ppm) SEPTTR-184 3DC: 32.692 ppm | ED80 (ppm) SEPTTR-184 3DC: >200 ppm | Disease Control (%) SEPTTR-184 3DC (rate 3.125 ppm): 31% | Disease Control (%) SEPTTR-184 3DC (rate 12.5 ppm): 43% | Disease Control (%) SEPTTR-184 3DC (rate 50 ppm): 56% | Disease Control (%) SEPTTR-184 3DC (rate 200 ppm): 58%
